Experiment [1] concerns the target CD16 on CD16-transfected NFAT-bla Jurkat cells (UniProt P08637). As to the kind of experiment: competition flow cytometry; displacement of AF488-labelled human IgG1 (25 nM) from CD16-transfected NFAT-bla Jurkat cells. Background: In flow cytometry, cells or beads pass a laser one at a time.
In experiment [2] the target is human FcRn on FcRn-transfected 293FS cells (293FS+FcRn+β2m (clone #2)) (human) (UniProt P55899). In words: competition flow cytometry; displacement of AF488-labelled IgG1 (3.33 nM) from human FcRn-transfected 293FS cells, pH 5.5.
Sequence of UniProt P55899 (P55899 24-365, chain 1 of 2): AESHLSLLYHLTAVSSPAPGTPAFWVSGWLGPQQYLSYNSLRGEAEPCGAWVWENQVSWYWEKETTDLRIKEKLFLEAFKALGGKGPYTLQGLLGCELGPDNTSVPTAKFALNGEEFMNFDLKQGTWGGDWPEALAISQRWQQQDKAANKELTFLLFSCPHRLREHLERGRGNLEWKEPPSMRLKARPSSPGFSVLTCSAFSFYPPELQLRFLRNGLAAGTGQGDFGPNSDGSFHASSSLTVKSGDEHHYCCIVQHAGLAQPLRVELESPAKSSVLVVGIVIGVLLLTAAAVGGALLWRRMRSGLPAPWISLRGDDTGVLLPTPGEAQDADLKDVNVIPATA
Sequence of UniProt P55899 (P61769 21-119, chain 2 of 2, further chain): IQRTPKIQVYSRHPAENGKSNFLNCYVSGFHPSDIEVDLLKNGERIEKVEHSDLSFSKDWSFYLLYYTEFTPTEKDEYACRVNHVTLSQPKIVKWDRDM

One may read the Ki as a dissociation constant, usually derived from enzyme kinetics or from competition with a known ligand. The low end stands for a stronger hold on the target, the high end for a looser hold on the target.

Sequence of UniProt P08637 (P08637 17-254 limits assumed): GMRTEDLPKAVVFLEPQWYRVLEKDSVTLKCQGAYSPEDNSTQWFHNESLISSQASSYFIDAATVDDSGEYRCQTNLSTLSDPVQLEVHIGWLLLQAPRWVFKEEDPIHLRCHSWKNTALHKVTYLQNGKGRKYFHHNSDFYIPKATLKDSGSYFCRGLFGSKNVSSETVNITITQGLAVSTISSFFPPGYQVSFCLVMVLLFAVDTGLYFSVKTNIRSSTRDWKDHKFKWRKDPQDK

On to human IgG1 (antibody), for which the inhibitory constant (Ki) came to 225 nM in experiment [1] and 200 nM in experiment [2].

These data come from patent US20190119377A1.
